# From patent publication US20230131338A1 (Regeneron, published 2023)
# B1: REGN9933 (antibody, human IgG4 S228P, kappa, V domains shown)
# VH: EVQLVESGGGLVQPGGSLRLSCAASGFTFSNYAMNWVRQAPGKGLDWVSFIRSGGDTTYYADSVKGRFTISRDNSKNTLYLQMNSLRAEDTAVYYCAKVHPYTWDYGDAFDIWGQGTMVTVSS
# VL: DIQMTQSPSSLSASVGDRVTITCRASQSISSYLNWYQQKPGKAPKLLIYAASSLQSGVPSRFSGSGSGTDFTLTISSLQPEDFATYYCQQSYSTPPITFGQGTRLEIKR
# notes: Fully human; hinge-stabilized IgG4 (IgG4P) Fc; also called H4H29790P2; subject anti-FXI mAb
# Key:
# [1] = target: recombinant rabbit FXI with C-terminal myc-myc-hexahistidine tag (rbFXI.mmH) (rabbit, UniProt G1SSQ6 19-623); assay: SPR, REGN9933 surface-captured, mmH-tagged protein injected, 25°C, pH 7.4, 1:1 steady-state model
# [2] = target: T1, cynomolgus monkey FXI (in pooled cynomolgus monkey plasma) (cynomolgus monkey, UniProt A0A2K5VVW4 19-624); assay: cell-based or functional assay
# [3] = target: T1, cynomolgus monkey FXI (in pooled …); assay: cell-based or functional assay; remark: listed apart in the source
# [4] = target: recombinant mouse FXI with C-terminal myc-myc-hexahistidine tag (mFXI.mmH) (mouse, UniProt Q91Y47 19-624, limits assumed); assay: SPR, REGN9933 surface-captured, 25°C, pH 7.4
binder,measurement,setting,value
B1,Kd,[1],171 nM
same,"concentration at which aPTT doubles relative to baseline, pooled cynomolgus monkey plasma",[2],1.1 µM
same,"Fold Increase in Clotting Time (aPTT w/EA), maximum change, monkey plasma",[3],2.1 fold
same,"TGA % ETP (induced w/EA), relative to baseline, monkey plasma",[3],66%
same,"TGA % Peak Thrombin (induced w/EA), relative to baseline, monkey plasma",[3],43%
same,"TGA Fold Increase in Lag Time (induced w/EA), maximum change, monkey plasma",[3],2.2 fold
same,binding result,[4],no binding (tested: 50 nM)
